Experimental data published in patent US5646120, “Peptide-based inhibitors of HIV replication” (Allelix Biopharmaceuticals, Inc.).

T1: Tat basic domain wild-type oligopeptide ([…]) (HIV-1, UniProt P04608 P04608:49-57)
T1 chain: RKKRRQRRR

B1: TAR variant not binding tat (ssRNA)
RNA: GGAGAACUGAGCCUGGGAGCUCUCUCC
B2: truncated functional TAR RNA (ssRNA)
RNA: GGAGAUCUGAGCCUGGGAGCUCUCUCC

Tests used:
HIV-1 Tat(1-86) = HIV-1 Tat(1-86) (HIV-1, UniProt P04608 P04608:1-86); assay: EMSA; TAR variant stated not to bind tat; conditions: hairpin
[1] = target: T1, Tat basic domain wild-type oligopeptide …; assay: EMSA; affinity similar to tat(1-86); conditions: protein: synthetic; tags: synthetic L-peptide, American Peptide Company; hairpin

Row | Binder | binding result (HIV-1 Tat(1-86)) | binding result [1]
1 | B1 | no binding | 
2 | B2 |  | binds
